From article doi:10.1101/2020.12.07.415216

Molecular target: SARS-CoV-2 RBD homotrimer (RBD appended onto a cystine-stabilized, hyperglycosylated GCN4 trimerization tag) (SARS-CoV-2)
Experiment: SDS-PAGE under non-reducing conditions

## SARS-CoV-2 RBD homotrimer (RBD appended onto a cystine-stabilized, hyperglycosylated GCN4 trimerization tag)
  stoichiometry N: 3
